The record followed here is publication PMC4410316.

Where two headings read alike, the source gives them in different places.

Data set [1] deals with T1, human thrombin (HT) (Homo sapiens (human), UniProt P00734;P00734 328-363;364-622). The experiment in a line: nanopore single-molecule titration.
For data set [2], the target named is T1, human thrombin (HT). Nature of the data set: nanopore single-molecule titration. This is another data set of the same source.
In data set [3] the target is T1, human thrombin (HT). The experiment in a line: nanopore single-molecule titration. The source holds these as a separate data set.
Data set [4] addresses T1, human thrombin (HT). Nature of the data set: nanopore single-molecule.
The target of data set [5] is T1, human thrombin (HT). Nature of the data set: nanopore single-molecule titration. This is another data set of the same source.

B1: TBA-T12A (structured_DNA)
DNA: GGTTGGTGTGGATGG
With B1, binding in the data set with human thrombin (HT) [1] was characterised by a dissociation constant (Kd) of 7 ± 1 nM.

B2: TBA (structured_DNA)
DNA: GGTTGGTGTGGTTGG
B2: the Kd with human thrombin (HT) [2] was 13 ± 3 nM; in the data set with human thrombin (HT) [3], 8 ± 1 nM.

B3: Random DNA (ssDNA)
DNA: CACCATCACCACCATCAT
On to B3, for which the binding result with human thrombin (HT) [4] is on record as “no binding”.

B4: TBA-T3A (structured_DNA)
DNA: GGATGGTGTGGTTGG
B4 displayed a Kd with human thrombin (HT) [5] of 6 ± 1 nM.

One may read the Kd as the concentration at which binding is half-saturated. High values mean a looser complex, low ones a tighter complex.
